Substitutions are numbered along the chain they refer to. Blank lines part the entries; values can stand above or below the binder they belong to.
Biological target: T1, human CD27-HisFc fusion protein (human, UniProt P26842 20-192)
T1 construct: also called CD27-HisFc (Sino Biological #10039-H03H); not shown: His tag and Fc
T1 sequence (looked up): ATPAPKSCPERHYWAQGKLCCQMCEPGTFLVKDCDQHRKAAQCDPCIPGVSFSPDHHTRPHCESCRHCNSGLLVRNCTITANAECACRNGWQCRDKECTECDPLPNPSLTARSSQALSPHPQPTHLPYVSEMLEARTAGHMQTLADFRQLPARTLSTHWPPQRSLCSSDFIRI
Experiment: BLI (Octet RED96), CD27-HisFc captured on AHC sensor, Fab in solution
Procedure: A histidine tag was added to each unique sequence of the antibody Fab fragment at the C-terminal, and the antibody Fab fragment was overexpressed in an E. coli expression system, and then purified by using Ni-NTA affinity resin. […] The collected data was processed by Data Acquisition 7.1 software and fitted to a 1:1 combined Langmuir model curve. The mAb076 and mAb077 antibodies were the two antibodies with optimal binding and were selected for further analysis and development experiments.

binding result: binds
B1: mAb076 antibody Fab fragment with C-terminal histidine tag (Fab, V domains shown)
VH: EVQLVESGGGLVQPGGSLRLSCAASGFTFSDYGIHWVRQAPGKGLEWIGWINPNRGSTNYAQKFQGRVTISRDNSKNTLYLQLNSLRAEDTAVYYCARDYGYTWYFDVWGQGTLVTVSS
VL: DIQLTQSPSSLSASVGDRVTITCRASQDISSVLAWYQQKPGKAPKLLIYAASSLQSGVPSRFSGSGSGTDFTLTISSLQPEDFATYYCQQRDAWPLTFGQGTKVEIK

binding result: binds
B2: mAb077 antibody Fab fragment with C-terminal histidine tag (Fab, V domains shown)
VH: B1 VH with D31G, N59K, Y100P
VL: B1 VL with V32D, S53T, L96P
